Laboratory results as given in the RNAGym collection of RNA variant scans (doi:10.7554/elife.90254).

B1: LINE1-full (parent)
chain: UACGUAGGUGGUUUUCCCCUGAUAGUGCUAAGGGGGCCUGGAAGUUUGGACUGGGCAGAGCUCAACACAGCGUGGCAAAGUGGCUGUGGCUAGACUGCCUCUCUGGAUUCCUCGUCACUCAGCAGGGCAUCUCUGAGAGAAAUGCC

Variants of: B1
Assay: self-cleavage, relative activity (ratio to wild type); higher = more cleavage; in vitro, sequencing; the parent is a self-cleaving ribozyme

Point of comparison: UACGUAAGUGGUUUUCCCCUGAAAGUGCUAAGGGGGCCUGGAAGUUUGGACUGGGCAGAGCUCAACACAGCGUGGCAAAGUGGCUGUGGCUAGACUGCCUCUCUGGAUUCCUCGUCACUCAGCAGGGCAUCUCUGAGAGAAAUGCC [G7A U23A], self-cleavage 0.85. Against it:
- UACGUAGGUGGUUUUCCCCUGAUAGUGCUAAGGGGGCCUGGAAGUUUGGACCGGGCAGAGCUCAACACAGCGUGGCAAAGUGGCUGUGGCUAGACUGCCUCUCUGGAUCCCUCGUCACUCAGCAGGGCAUCUCUGAGAGAAAUGCC [U52C U109C] — lower, 0.69
- UACGUAGGUAGCUUUCCCCUGAUAGUGCUAAGGGGGCCUGGAAGUUUGGACUGGGCAGAGCUCAACACAGCGUGGCAAAGUGGCUGUGGCUAGACUGCCUCUCUGGAUUCCUCGUCACUCAGCAGGGCAUCUCUGAGAGAAAUGCC [G10A U12C] — higher, 1.04
- UACGUAGGUGGUUUUCCCCUGAUAGUGCUAAGGGGGCCUGGAAGUUUGGACUGGGCAGAGCUCAACACAGCGUGGCAAAGUGGCUGUGGCUAGACUGUCGCUCUGGAUUCCUCGUCACUCAGCAGGGCAUCUCUGAGAGAAAUGCC [C98U U100G] — lower, 0.05
- UACGUAGGUGGUUUUCCCCUGAUAGUGCUAAGGGGGCCUGGAAGUUUGGACAGGGCAGAGCUCAACACAGCGUGGCAAAGUGGCUGAGGCUAGACUGCCUCUCUGGAUUCCUCGUCACUCAGCAGGGCAUCUCUGAGAGAAAUGCC [U52A U87A] — lower, 0.08
- UACGUAGGUGGUUUUCCCCUGAUAGUGCUAAGGGGGCCUGGAAGUUUGGACUGGGCAGAGCUCAACACAGCGUAGCAAAGUGGCUGUGGCUAGGCUGCCUCUCUGGAUUCCUCGUCACUCAGCAGGGCAUCUCUGAGAGAAAUGCC [G74A A94G] — lower, 0.15
- UACGUAGGUGGUUUUCCCCUGAUAGUGCUAAGGGGGCCUGGAAGUUUGGACUGGGCAGAGCUCAACACAGCGUGGCAAAGUGGCUGUGGCUAGACUGCCUCUCUGGAUUCCUCGUCACUCAUCAGGGCACCUCUGAGAGAAAUGCC [G122U U130C] — higher, 1.21
- UACGUAGGUGGUUUUCCCCUGAUAGUGCUAAGGGGGCCUGGAAGUUUGGACUGGGCAGAGCUCAACACGGCGUGGCAAAGUGGCUGUGGCUAGACUGCCUCUCUGGAUUCCUCGUCACUCAGCAGGGCAUAUCUGAGAGAAAUGCC [A69G C131A] — higher, 1.01
- UACGUAGGUGGUUUUCCCAUGAUAGUGCUAAGGGGGCCUGGAAGUUUGGACUGGGCAGAGCUCAACACAGCGUGGCAAAGUGGCUGUGGCUAGACUGCCUCUCUGGAUUCCGCGUCACUCAGCAGGGCAUCUCUGAGAGAAAUGCC [C19A U112G] — the same, 0.85
- CACGUAGGUGGUUUUCCCCUGAUAGUGCUAAGGGGGCCUGGAAGUUUGGACUGGGCAGAGCUCAACACAGCGUGGCAAAGUGGCUGUGGCUAGACUGCCUCUCUGGAUUCCUCGUCACUCAGCAGGGCAUCUCCGAGAGAAAUGCC [U1C U134C] — lower, 0.38
- UACGUAGGUGGUUUUCCCCUGAUAGUGCUAAGGGGGCCUGGAAGUUUGGACUGGGCAGAGCUCAACACAGCGUGGCAAAGUGGCUGUGGCUAGGCUGCCUCUCUGGAUUCCUCGUCACUCAGCAGGGCAUCUCUGAGUGAAAUGCC [A94G A138U] — lower, 0.36
- UACGUAGGUGGUUUUCCCCUGAUAGUGCUAAGGGGGCCUGGAAGUUUGGACUGGGCAGAGCUCAACACAGCGUGGCAAAGUGGCUGUGGCUAGACUGCCUCUCUGGAAUCCUCGUCACUCAGCGGGGCAUCUCUGAGAGAAAUGCC [U108A A124G] — higher, 1.55
- UACGUAGGUGGUCUUCCCCUGAUAGUGCUAAGGGGGCCUGGAAGUUUGAACUGGGCAGAGCUCAACACAGCGUGGCAAAGUGGCUGUGGCUAGACUGCCUCUCUGGAUUCCUCGUCACUCAGCAGGGCAUCUCUGAGAGAAAUGCC [U13C G49A] — higher, 0.88
- UACGUAGGUGGUUUUCCCCUGAUAGUGCUAAGGGGGCCUGGAAGUUUGGACUGGGCAGAGCUCAACACAGCGUGGCAAAGUGGCUGUGGCUAGACUGCCUUCCUGGAUUCCUCGUCACUCAGCAGGGCAUCUCUGAGAGAAAUGCC [C101U U102C] — higher, 1.49
- UACGUAGGUGGUUUUCCCCUGAUAGUGCUAAGGGGGCCUGGAAGUUUGGACAGGGCAGAGCUCAACACAGCGUGGCAAAGUGGCUGUGGCUAGAAUGCCUCUCUGGAUUCCUCGUCACUCAGCAGGGCAUCUCUGAGAGAAAUGCC [U52A C95A] — lower, 0.09
- UACGUAGGUGGGUUUCCCCUGAUAGUGCUAAGGGGGCCUGGAAGUUUGGACUGGGUAGAGCUCAACACAGCGUGGCAAAGUGGCUGUGGCUAGACUGCCUCUCUGGAUUCCUCGUCACUCAGCAGGGCAUCUCUGAGAGAAAUGCC [U12G C56U] — lower, 0.22
- UACGUAGGUGGUUUUCCCCUGAUAGUGCUAAGGGGGCCUGGAAGUUUGGUCUGGGCAGAGCUCAACACAGCGUGGCAAAGUGGCUGUGGCUAGUCUGCCUCUCUGGAUUCCUCGUCACUCAGCAGGGCAUCUCUGAGAGAAAUGCC [A50U A94U] — lower, 0.27
- UACGUAGGUGGUUUUCCCCUGAUAGUGCUAAGGGGGCCUGGAAGUUCGGACUGGGCAGAGCUCAACACAGCGUGGCAAAGUGGCUGUGGCUAGACUGCCUCUCUGGAUUCCUCGCCACUCAGCAGGGCAUCUCUGAGAGAAAUGCC [U47C U115C] — higher, 2.06
- UACGUAGGUGGUUUUCCCCUGAUAGUGCUAAGGGGGCCUGGAAGUUUGGACUGGGCAGAGCUCAACACAGCGUGGCCAAGUGGCUGUGGCUAGACUGCCUCCCUGGAUUCCUCGUCACUCAGCAGGGCAUCUCUGAGAGAAAUGCC [A77C U102C] — lower, 0
- UUCGUAGGUGGUUUUCCCCUGAUAGUGCUAAGGGGGCCUGGAAGUUUGGACUGGGCAGAGCUCAACACAGCGUGGCAAAGAGGCUGUGGCUAGACUGCCUCUCUGGAUUCCUCGUCACUCAGCAGGGCAUCUCUGAGAGAAAUGCC [A2U U81A] — higher, 1.38
- CACGUAGGUGGUUUACCCCUGAUAGUGCUAAGGGGGCCUGGAAGUUUGGACUGGGCAGAGCUCAACACAGCGUGGCAAAGUGGCUGUGGCUAGACUGCCUCUCUGGAUUCCUCGUCACUCAGCAGGGCAUCUCUGAGAGAAAUGCC [U1C U15A] — lower, 0.81
- UACGUAGGCGGUUUUCCCCUGAUAGUGCUAAGGGGGCCUGGAAGUUUGGACUGGGCAGAGCUCAACACAGCGUGGCAAAGUGGCUGUGGCUAGACUGCCUCUCUGGAUUCCUCGUCACUCAGCAGGGCAUCUCUGAGAGAGAUGCC [U9C A141G] — higher, 1.36
- UACGUAGGUGGAUUUCCCCUGAUAGUGCUAAGGGGGCCUGGAAGUUUGGACUGGGCAGAGCUCAACACAGCGUGGCAAAGUGGCUGUGGCUAGACUGCCACUCUGGAUUCCUCGUCACUCAGCAGGGCAUCUCUGAGAGAAAUGCC [U12A U100A] — higher, 0.87
- UACGUAGGUGGUUUUCCCCUGAUAGUGCUAUGGGGGCCUGGAAGUUUGGACUGGGCGGAGCUCAACACAGCGUGGCAAAGUGGCUGUGGCUAGACUGCCUCUCUGGAUUCCUCGUCACUCAGCAGGGCAUCUCUGAGAGAAAUGCC [A31U A57G] — higher, 1
- UACGUAGGUGGUUUUCCCCUGAUAGUGCUAAGGGGGCCUGGAAGUUUGGACUGGGCAGAGCUCAACACAGCGUGGCAAAGUGGCUGUGGCUAGACUGCCUCCCUGGAUUCCUCGUCACUCAGCAGGGCGUCUCUGAGAGAAAUGCC [U102C A129G] — higher, 1.51
- UACGUAGGUGGUUUUCCCCUGAUAGUGCUAAGGGGGCCUGGAAGUUUGGACUGGGCAGAGCUCAACACAGCGUGGCAAAGUGGCUGUGGCUAGACUGCCUCUCGGGAUUCCUCGACACUCAGCAGGGCAUCUCUGAGAGAAAUGCC [U104G U115A] — higher, 0.87
- UACGUAGGUGGUUUUCCCCUGAUCGUGCUAAGGGGGCCUGGAAGUUUGAACUGGGCAGAGCUCAACACAGCGUGGCAAAGUGGCUGUGGCUAGACUGCCUCUCUGGAUUCCUCGUCACUCAGCAGGGCAUCUCUGAGAGAAAUGCC [A24C G49A] — lower, 0.82
- UACGUAGGUGGUUUUCCCCUGAUAGUGCUAAGGGGGCCUGGAAGUUUGGACUGGGCAGAGCUCAACACAGCGUGGCAAAGUGGCUGUGGCUAGACUGCCCCUCUGGAUUCCUCGUCACCCAGCAGGGCAUCUCUGAGAGAAAUGCC [U100C U119C] — higher, 1.87
- UACGUAGGUGGUUUUCCCCUGAUAGUGCUAAGGGGGCCUGGAUGUUUGGACUGGGCAGAGCUCAACACAGCGUGGCAAAGUGGCUGUGGCUAGACUGCCUCUCUGGAUUCCUCGUCACUCAGCAGGGCAUCUCUGAGAGACAUGCC [A43U A141C] — higher, 2.43
- UACGUAGGUGGUUUUCCCCUGAUAGUGCUAGGGGGGCCUGGAAGUUUGGACUGGGCAGAGCUCAACACAGCGUGGCUAAGUGGCUGUGGCUAGACUGCCUCUCUGGAUUCCUCGUCACUCAGCAGGGCAUCUCUGAGAGAAAUGCC [A31G A77U] — higher, 0.86
- UACGUAGGUGGUUUUCCCCUAAUAGUGCUAAGGGGGCCUGGAAGUUUGGACUGGGCAGAGCUCAACCCAGCGUGGCAAAGUGGCUGUGGCUAGACUGCCUCUCUGGAUUCCUCGUCACUCAGCAGGGCAUCUCUGAGAGAAAUGCC [G21A A67C] — lower, 0.02
- UACGUAGGUGGUUAUCCCCUGAUAGUGCUAAGGGGGCCUGGAAGUUUGGACUGGGCAGAGCUCAACACAGCGUGGCAAAGUGGCUGUGGCUAGACUGCCUCUCAGGAUUCCUCGUCACUCAGCAGGGCAUCUCUGAGAGAAAUGCC [U14A U104A] — higher, 1.16
- UACGUAGGUGGUUUUCCCCUGAUAGUGCUAAGGGGGCCUGGAAGUUUGGACUGGGCAGAGCUCAACACAGCGUGGCUAAGUGGCUGUGGCUAGACUGCCUCUCUGGACUCCUCGUCACUCAGCAGGGCAUCUCUGAGAGAAAUGCC [A77U U108C] — higher, 1.57
- UACGUAGGUGGUUUUCCCCUGAUAGUGCUAAGGGGGCCUGGAAGUUUGGACUGGGCAGAGCUCAACACAGCGUGGCAAAGUGGCUGUGGCUAGACUACCUCUCUGGAUUCCUCGUCACUCAGCAGGGCAUCUCUGAGAGAACUGCC [G97A A142C] — lower, 0.14
- UACGUAGGUGGUUUUCCCCUGAUAGUGCUAAGGGGGCCUGGAAGUUUGGACUGGGCAGAGCUCAACACAGCGUGGCAAAGUGGCUGUGGCUAGACUGCCUCUCUGGAUUCCUCGUCACUCAGCAGGGCCUCUCUGGGAGAAAUGCC [A129C A136G] — higher, 1.61
- UACGUAGGUGGUUUUCCCCCGAUAGUGCUAAGGGGGCCUGGAAGUUUGGACUGGGCAGAGCUCAACACAGCGUGGCAAAGUGGCUGUGGCUAGACUGCCUCUCUGGAUUCCUCGUCACUCAGCAGGGCAUCUCUGAGAGAAAUGCU [U20C C146U] — higher, 1.27
- UACGUAGGUGGUCUUCCCCUGAUAGUGCUAAGGGGGCCUGGAAGUUUGGACUGUGCAGAGCUCAACACAGCGUGGCAAAGUGGCUGUGGCUAGACUGCCUCUCUGGAUUCCUCGUCACUCAGCAGGGCAUCUCUGAGAGAAAUGCC [U13C G54U] — lower, 0.6
- UACGUAGGUGGUUUUCCCCUGAUAUUGCUAAGGGGGCCUGGAAGUUUGGACUGGGCAGAGCUCAACACAGCGUGGCAAGGUGGCUGUGGCUAGACUGCCUCUCUGGAUUCCUCGUCACUCAGCAGGGCAUCUCUGAGAGAAAUGCC [G25U A79G] — lower, 0.77
- UACGUAGGUGGUUUUCCCCUGAUAGUGCUAAGGGGGCCUGGAAGUUUGGACUGGGCAGAGCUCAACACAGCGUGGCAUAGUGGCUGUGGCUAGACUGCCUCUCUGGAUUCCUCGUCACUCAGCAGGGCGUCUCUGAGAGAAAUGCC [A78U A129G] — higher, 2.49
